According to US20150056301A1 (CANBAS, published 2015):
Where no end group is shown, it is not given here. [ ]: non-standard residue; d: D form. dPhe(4-NO2) = N[C@H](Cc1ccc([N+](=O)[O-])cc1)C(=O)O; dPhe(F5) = N[C@H](Cc1c(F)c(F)c(F)c(F)c1F)C(=O)O; dBpa = N[C@H](Cc1ccc(C(=O)c2ccccc2)cc1)C(=O)O; dCha = N[C@H](CC1CCCCC1)C(=O)O

How the values were obtained:
Experiment in all cases: cell-based or functional assay
PKA = target: PKA
purified CHK2 kinase = purified CHK2 kinase (UniProt O96017 1-543)
[1] = target: T1, baculovirus derived recombinant human full length Chk1 with histidine tag (human, UniProt O14757 1-476)
T1 sequence: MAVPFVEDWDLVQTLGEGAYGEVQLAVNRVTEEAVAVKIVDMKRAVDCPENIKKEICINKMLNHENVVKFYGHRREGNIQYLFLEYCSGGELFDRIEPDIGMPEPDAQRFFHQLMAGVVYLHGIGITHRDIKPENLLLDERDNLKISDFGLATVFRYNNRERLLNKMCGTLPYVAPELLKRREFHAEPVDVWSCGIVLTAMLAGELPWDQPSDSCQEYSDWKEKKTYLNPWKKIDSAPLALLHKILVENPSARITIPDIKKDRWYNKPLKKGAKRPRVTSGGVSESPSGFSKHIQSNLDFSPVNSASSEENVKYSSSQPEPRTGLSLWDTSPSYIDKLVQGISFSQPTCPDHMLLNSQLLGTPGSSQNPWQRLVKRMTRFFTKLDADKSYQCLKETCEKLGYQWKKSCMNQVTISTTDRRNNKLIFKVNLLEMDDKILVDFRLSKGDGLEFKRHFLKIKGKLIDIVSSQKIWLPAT

[2] = target: E. Coli derived recombinant human full length Chk2 fused with GST (human, UniProt O96017 1-543)
E. Coli derived recombinant human full length Chk2 fused with GST, sequence (O96017 whole entry, the tested form may be a part): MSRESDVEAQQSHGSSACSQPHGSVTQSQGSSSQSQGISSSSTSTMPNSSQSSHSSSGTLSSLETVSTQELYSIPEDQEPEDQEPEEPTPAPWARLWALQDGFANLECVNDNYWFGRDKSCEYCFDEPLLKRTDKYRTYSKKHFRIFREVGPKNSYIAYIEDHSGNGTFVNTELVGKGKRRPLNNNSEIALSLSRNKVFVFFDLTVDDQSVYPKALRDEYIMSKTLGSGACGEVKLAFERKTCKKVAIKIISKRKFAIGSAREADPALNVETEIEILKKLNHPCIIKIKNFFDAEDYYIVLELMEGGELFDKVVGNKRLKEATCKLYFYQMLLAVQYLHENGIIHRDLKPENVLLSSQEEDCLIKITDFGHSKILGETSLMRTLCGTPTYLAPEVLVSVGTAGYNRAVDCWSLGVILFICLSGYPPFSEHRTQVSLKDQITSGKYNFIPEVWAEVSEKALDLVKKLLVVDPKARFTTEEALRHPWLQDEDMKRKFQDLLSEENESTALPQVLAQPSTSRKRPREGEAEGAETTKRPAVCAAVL

purified CHK2 kinase, sequence (O96017 whole entry): as the sequence (O96017 whole entry, the tested form may be a part) above

B1: CBP440 (peptide)
peptide: YGRKKRRQRRRXFXYY
modifications: (l-Tyr)(l-Gly)(l-Arg)(l-Lys)(l-Lys)(l-Arg)(l-Arg)(l-Gln)(l-Arg)(l-Arg)(l-Arg)(l-Cha)(l-Phe-2,3,4,5,6-F)(l-aminoundecanoic acid)(l-Tyr)(l-Tyr): position 12 cyclohexyl-alanine; position 13 pentafluoro-phenylalanine; position 14 aminoundecanoic acid
IC50 in µM, kinase inhibition analysis (PepTag Non-Radioactive Protein Kinase Assay) (PKA): 180 µM
IC50 in µM, kinase inhibition analysis (PepTag Non-Radioactive Protein Kinase Assay) (purified CHK2 kinase): 8 µM

[dY][dY][dS]G[dS][dR][dPhe(F5)][dCha][dR][dR][dR][dQ][dR][dR][dK][dK][dR]G[dY] [CBP450]
IC50 in µM, kinase inhibition analysis (PepTag Non-Radioactive Protein Kinase Assay) (PKA): > 400 µM
IC50 in µM, kinase inhibition analysis (PepTag Non-Radioactive Protein Kinase Assay) (purified CHK2 kinase): 10 µM

[dBpa][dS][dW][dS][dPhe(F5)][dCha][dR][dR][dR][dQ][dR][dR] [CBP501]
Kinase inhibition analysis of peptides (phosphorylation of serine 216 on GST-Cdc25C 167-267, enzyme linked immune assay) [1]: 7.9
Kinase inhibition analysis of peptides (phosphorylation of serine 216 on GST-Cdc25C 167-267, enzyme linked immune assay) [2]: 18.6

[dBpa][dS][dW][dS][dPhe(4-NO2)][dCha][dR][dR][dR][dQ][dR][dR] (also: cyclised or stapled (no detail)) [CBP603]
Kinase inhibition analysis of peptides (phosphorylation of serine 216 on GST-Cdc25C 167-267, enzyme linked immune assay) [1]: 15.5
Kinase inhibition analysis of peptides (phosphorylation of serine 216 on GST-Cdc25C 167-267, enzyme linked immune assay) [2]: 18.1

[dY][dBpa][dS][dW][dS][dPhe(F5)][dCha][dR][dR][dR][dQ][dR][dR] [CBP500]
Kinase inhibition analysis of peptides (phosphorylation of serine 216 on GST-Cdc25C 167-267, enzyme linked immune assay) [1]: 5.6
Kinase inhibition analysis of peptides (phosphorylation of serine 216 on GST-Cdc25C 167-267, enzyme linked immune assay) [2]: 8

[dBpa][dD][dS][dW][dS][dPhe(F5)][dCha][dR][dR][dR][dQ][dR][dR] (also: cyclised or stapled (no detail)) [CBP505]
Kinase inhibition analysis of peptides (phosphorylation of serine 216 on GST-Cdc25C 167-267, enzyme linked immune assay) [1]: 63.4
Kinase inhibition analysis of peptides (phosphorylation of serine 216 on GST-Cdc25C 167-267, enzyme linked immune assay) [2]: > 100
